Among the data in patent publication US20040038883A1 (published 2004) are Ki values, retold here.

The target in experiment [1] is T1, SGK.
T1 chain: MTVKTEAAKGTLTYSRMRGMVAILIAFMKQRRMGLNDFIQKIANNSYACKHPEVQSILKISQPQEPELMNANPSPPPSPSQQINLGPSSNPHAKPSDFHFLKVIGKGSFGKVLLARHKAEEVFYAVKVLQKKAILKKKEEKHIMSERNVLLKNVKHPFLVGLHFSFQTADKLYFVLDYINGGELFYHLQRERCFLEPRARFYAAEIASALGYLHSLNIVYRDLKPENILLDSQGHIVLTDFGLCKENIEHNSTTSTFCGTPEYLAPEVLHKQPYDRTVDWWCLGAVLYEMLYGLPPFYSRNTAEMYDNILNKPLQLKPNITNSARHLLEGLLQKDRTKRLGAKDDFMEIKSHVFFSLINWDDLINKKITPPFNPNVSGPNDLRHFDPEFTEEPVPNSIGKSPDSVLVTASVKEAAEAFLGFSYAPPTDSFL
As to the kind of experiment: in vitro SGK kinase activity assay, 33P-ATP, Flash Plate.

For experiment [2], the target named is T2, Src.
T2 construct: Bought enzyme
In words: in vitro Src kinase activity assay, 33P-ATP, Flash Plate.

Experiment [3] deals with T3, Cdc2.
T3 construct: Bought enzyme
In words: in vitro CDC2 kinase activity assay, 33P-ATP, Flash Plate.

In experiment [4] the target is T4, PKCδ.
T4 construct: Bought enzyme; also called PKC delta
In words: in vitro PKC delta kinase activity assay, 33P-ATP, Flash Plate.

Experiment [5] has as its target T5, PKCγ.
T5 construct: Bought enzyme; also called PKC gamma
In words: in vitro PKC gamma kinase activity assay, 33P-ATP, Flash Plate.

For experiment [6], the target named is T6, PKA.
T6 construct: Bought enzyme
In words: in vitro PKA kinase activity assay, 33P-ATP, kemptide substrate, Flash Plate.

The target of experiment [7] is T7, Akt wild-type recombinant protein (Akt1) (Homo sapiens (Human), UniProt P31749 1-480, as many as five phosphorylations seen by ESI-MS (positions not stated)).
T7 construct: also called Akt1 wild type
T7 sequence (P31749 other isoform, or with tags, fused parts or gaps limits assumed): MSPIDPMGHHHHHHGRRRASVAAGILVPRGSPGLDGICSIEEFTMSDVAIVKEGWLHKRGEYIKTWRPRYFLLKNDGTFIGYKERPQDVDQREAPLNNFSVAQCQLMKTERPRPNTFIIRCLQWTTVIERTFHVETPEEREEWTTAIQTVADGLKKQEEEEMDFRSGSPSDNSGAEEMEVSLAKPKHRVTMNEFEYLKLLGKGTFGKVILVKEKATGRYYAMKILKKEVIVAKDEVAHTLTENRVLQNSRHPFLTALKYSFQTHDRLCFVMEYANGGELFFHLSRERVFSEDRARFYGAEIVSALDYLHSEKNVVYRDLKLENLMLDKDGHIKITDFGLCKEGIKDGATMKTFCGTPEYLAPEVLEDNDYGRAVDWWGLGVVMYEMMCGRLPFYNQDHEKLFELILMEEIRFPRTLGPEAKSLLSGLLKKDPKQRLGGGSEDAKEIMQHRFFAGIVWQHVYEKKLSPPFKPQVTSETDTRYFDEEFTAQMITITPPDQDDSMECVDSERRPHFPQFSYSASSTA
In words: in vitro Akt1 kinase activity assay, biotinylated Bad-derived peptide substrate.

A value given as a limit tells only on which side of the number the result lay.

VELDPEFEPRARERTYSFGH [Peptide 1]: the inhibition constant (Ki) in experiment [1] is 1 µM; in experiment [2] it was over 33 µM; in experiment [3], over 33 µM; in experiment [4] it was over 42 µM; in experiment [5], over 30 µM; in experiment [6], over 34 µM. The inhibition constant Ki in experiment [7] turned out to be 1110 nM.

B1: Peptide 4 (peptide)
peptide: VELDPEFEPRARERAYAFGH
notes: Made from peptide 2 by changing Thr at position 15 to Ala
As for B1, the Ki is 12.5 µM in experiment [1]; over 33 µM in experiment [2]; over 33 µM in experiment [3]; over 42 µM in experiment [4]; over 30 µM in experiment [5]; over 34 µM in experiment [6]. Further, the inhibitory constant (Ki) in experiment [7] came to 95 nM.
